Laboratory results as given in the supplement of paper PMC7877785.
± gives the uncertainty stated by the source.

Test: self-splicing fitness, log relative to wild type (ln ratio); higher = more splicing; Tetrahymena group I intron in knt gene, E. coli kanamycin selection, DiMSum; sequences stand for … in CUCUCU…GGAGGGAAAAGUUAUCAGGCAUGCACCUGGUAGCUAGUCUUUAAACCAAUAGAUUGCAUCGGUUUAAAAGGCAAGACCGUCAAAUUGCGGGAAAGGGGUCAACAGCCGUUCAGUACCAAGUCUCAGGGGAAACUUUGAGAUGGCCUUGCAAAGGGUAUGGUAAUAAGCUGACGGACAUGGUCCUAACCACGCAGCCAAGUCCUAAGUCAACAGAUCUUCUGUUGAUAUGGAUGCAGUUCACAGACUAAAUGUCGGUCGGGGAAGAUGUAUUCUUCUCAUAAGAUAUAGUCGGACCUCUCCUUAAUGGGAGCUAGCGGAUGAAGUGAUGCAACACUGGAGCCGCUGGGAACUAAUUUGUAUGCGAAAGUAUAUUGAUUAGUUUUGGAGUACUCGUGGUCG
Summary of the method: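 Library with all eight P1ex-region intron nucleotides randomised, intron inside the knt kanamycin-resistance gene on pET-22b(+), in E. coli BL21(DE3). Cells grew overnight at 37°C or 30°C on LB agar with or without 25 μg/mL kanamycin (plus 100 μg/mL carbenicillin, 50 μM IPTG, 0.2% rhamnose), in six replicate transformations. Pooled colonies were amplicon-sequenced on Illumina HiSeq 2500. DiMSum fitness is the error-weighted combination of wild-type-normalised replicate fold changes, kanamycin versus none.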

Row | Sequence | self-splicing fitness (ln) (30 °C) | self-splicing fitness (ln) (37 °C)
1 | AUAUAGCAAUAUUACGGGCA | -1.67 ± 0.17 | -1.29 ± 0.19
2 | AUAUAGCAAUAUUACGUAAC | -1.11 ± 0.21 | -1.86 ± 0.38
3 | AUAUAGCAAUAUUACGUAGG | -3.06 ± 0.21 | -0.744 ± 0.16
4 | AUAUAGCAAUAUUACGUCGG | -3.37 ± 0.33 | -2.03 ± 0.28
5 | AUAUAGCAAUAUUACGUGUG | -3.82 ± 0.27 | -2.46 ± 0.18
6 | AUCAAGCAAUAUUACGAACG | -1.61 ± 0.13 | -0.462 ± 0.13
7 | AUCAAGCAAUAUUACGAAGA | -1.66 ± 0.19 | -1.64 ± 0.23
8 | AUCAAGCAAUAUUACGAGCC | -3.07 ± 0.32 | -1.23 ± 0.31
9 | AUCAAGCAAUAUUACGAUAG | -2.36 ± 0.35 | -1.63 ± 0.43
10 | AUCAAGCAAUAUUACGCCGU | -1.19 ± 0.087 | -0.429 ± 0.1
11 | AUCAAGCAAUAUUACGCCUU | -0.799 ± 0.094 | -0.146 ± 0.12
12 | AUCAAGCAAUAUUACGCGAU | -4.42 ± 0.33 | -3.08 ± 0.3
13 | AUCAAGCAAUAUUACGCGCU | -1.27 ± 0.12 | -0.36 ± 0.11
14 | AUCAAGCAAUAUUACGCUAC |  | -0.41 ± 0.33
15 | AUCAAGCAAUAUUACGCUCU | -0.452 ± 0.07 | 0.0492 ± 0.082
16 | AUCAAGCAAUAUUACGCUGA | -2.51 ± 0.13 | -1.46 ± 0.12
17 | AUCAAGCAAUAUUACGGACC | -1.47 ± 0.12 | -1.22 ± 0.086
18 | AUCAAGCAAUAUUACGGCCA | -0.51 ± 0.074 | -0.264 ± 0.079
19 | AUCAAGCAAUAUUACGGCUC | -0.551 ± 0.063 | -0.7 ± 0.076
20 | AUCAAGCAAUAUUACGGCUU | -2.87 ± 0.13 | -1.54 ± 0.14
21 | AUCAAGCAAUAUUACGGUGA | -1.36 ± 0.096 | -0.818 ± 0.1
22 | AUCAAGCAAUAUUACGGUUC | -3.53 ± 0.24 | -2.01 ± 0.13
23 | AUCAAGCAAUAUUACGUCUA | -0.821 ± 0.073 | -0.438 ± 0.076
24 | AUCAAGCAAUAUUACGUCUG | -1.16 ± 0.062 | -0.603 ± 0.076
25 | AUCAAGCAAUAUUACGUUCG | -1.5 ± 0.086 | -0.132 ± 0.091
26 | AUCAAGCAAUAUUACGUUUA | -1.73 ± 0.1 | -1.31 ± 0.093

Row | Sequence | self-splicing fitness (ln) (30 °C) | self-splicing fitness (ln) (37 °C)
27 | AUCAAGCAAUAUUACGUUUG | -2.87 ± 0.15 | -2.43 ± 0.18
28 | AUCCAGCAAUAUUACGAACC | -0.394 ± 0.1 | -0.346 ± 0.15
29 | AUCCAGCAAUAUUACGAACG | -0.746 ± 0.08 | -0.625 ± 0.12
30 | AUCCAGCAAUAUUACGACCC | -1.24 ± 0.071 | -0.202 ± 0.089
31 | AUCCAGCAAUAUUACGACCU | -1.86 ± 0.2 | 0.313 ± 0.18
32 | AUCCAGCAAUAUUACGACGC | -1.16 ± 0.12 | -0.49 ± 0.15
33 | AUCCAGCAAUAUUACGAGCC | -3.17 ± 0.25 | -3.32 ± 0.33
34 | AUCCAGCAAUAUUACGAUGA | -0.862 ± 0.086 | -0.285 ± 0.094
35 | AUCCAGCAAUAUUACGAUGG | -3.82 ± 0.27 | -2.85 ± 0.25
36 | AUCCAGCAAUAUUACGAUUC | -1.5 ± 0.11 | -0.86 ± 0.12
37 | AUCCAGCAAUAUUACGCAAU | -1.38 ± 0.064 | -0.773 ± 0.089
38 | AUCCAGCAAUAUUACGCAGU | -2.72 ± 0.11 | -0.839 ± 0.09
39 | AUCCAGCAAUAUUACGGCAG | -1.78 ± 0.085 | -0.158 ± 0.097
40 | AUCCAGCAAUAUUACGGGAA | -1.17 ± 0.079 | -0.654 ± 0.082
41 | AUCCAGCAAUAUUACGGGGG | -3.15 ± 0.16 | -1.96 ± 0.15
42 | AUCCAGCAAUAUUACGGGGU | -4.35 ± 0.18 | -2.19 ± 0.13
43 | AUCCAGCAAUAUUACGGUAC | -1.77 ± 0.12 | -0.693 ± 0.14
44 | AUCCAGCAAUAUUACGUAGG | -2.91 ± 0.14 | -1.49 ± 0.12
45 | AUCCAGCAAUAUUACGUUUC | -4.16 ± 0.25 | -2.05 ± 0.2
46 | AUCGAGCAAUAUUACGAGAC | -1.99 ± 0.32 | 
47 | AUCGAGCAAUAUUACGAGCG | -2.35 ± 0.33 | -1.81 ± 0.27
48 | AUCGAGCAAUAUUACGCACU | -1.25 ± 0.12 | -0.213 ± 0.14
49 | AUCGAGCAAUAUUACGCAUG | -3.62 ± 0.37 | -2.62 ± 0.26
50 | AUCGAGCAAUAUUACGCCCU | -3.05 ± 0.36 | 
51 | AUCGAGCAAUAUUACGCGCG | -2.29 ± 0.15 | -0.653 ± 0.16
52 | AUCGAGCAAUAUUACGGUGC | -2.54 ± 0.16 | -3.15 ± 0.43

Row | Sequence | self-splicing fitness (ln) (30 °C) | self-splicing fitness (ln) (37 °C)
53 | AUCGAGCAAUAUUACGGUGU | -2.74 ± 0.1 | -1.71 ± 0.14
54 | AUCGAGCAAUAUUACGUCAA | -2.72 ± 0.25 | -1.3 ± 0.29
55 | AUCGAGCAAUAUUACGUCAC |  | -1.29 ± 0.45
56 | AUCGAGCAAUAUUACGUUCG | -3.25 ± 0.2 | -2.52 ± 0.24
57 | AUCUAGCAAUAUUACGAAUU | -2.94 ± 0.18 | -1.74 ± 0.19
58 | AUCUAGCAAUAUUACGACUA | -0.918 ± 0.2 | -0.511 ± 0.16
59 | AUCUAGCAAUAUUACGAGCA | -0.993 ± 0.18 | -0.654 ± 0.2
60 | AUCUAGCAAUAUUACGCAAA | -2.59 ± 0.29 | -3.24 ± 0.39
61 | AUCUAGCAAUAUUACGCAGC | -2.64 ± 0.35 | -2.06 ± 0.31
62 | AUCUAGCAAUAUUACGCGCU | -1.97 ± 0.23 | -0.909 ± 0.2
63 | AUCUAGCAAUAUUACGCUAA | -2.07 ± 0.12 | -0.871 ± 0.12
64 | AUCUAGCAAUAUUACGCUGU | -1.61 ± 0.14 | -1.17 ± 0.18
65 | AUCUAGCAAUAUUACGCUUU | -2.3 ± 0.17 | -0.151 ± 0.12
66 | AUCUAGCAAUAUUACGGAUA | -3 ± 0.46 | -2.05 ± 0.26
67 | AUCUAGCAAUAUUACGGCGA | -0.505 ± 0.14 | -0.448 ± 0.16
68 | AUCUAGCAAUAUUACGGUAU | -1.54 ± 0.1 | -1.19 ± 0.13
69 | AUCUAGCAAUAUUACGGUUC | -2.94 ± 0.32 | -2.34 ± 0.32
70 | AUCUAGCAAUAUUACGUAAA | -2.41 ± 0.15 | -1.29 ± 0.14
71 | AUCUAGCAAUAUUACGUACG | -2.01 ± 0.23 | -1.04 ± 0.2
72 | AUCUAGCAAUAUUACGUCGU | -0.83 ± 0.1 | -1.21 ± 0.11
73 | AUCUAGCAAUAUUACGUGAG | -0.412 ± 0.095 | -0.00344 ± 0.17
74 | AUCUAGCAAUAUUACGUGGU |  | -2.85 ± 0.38
75 | AUCUAGCAAUAUUACGUUCG | -1.28 ± 0.091 | -0.393 ± 0.11
76 | AUCUAGCAAUAUUACGUUGC | -3.28 ± 0.28 | -3.03 ± 0.37
77 | AUGAAGCAAUAUUACGAACA | -0.423 ± 0.1 | 0.795 ± 0.15
